Measurements: patent publication US11278600B2, “Human alpha-galactosidase variants” (Codexis, Inc., priority 2014, dated 2022)
Where a chain is given by its changes, count along the chain named.

B1: 424 (protein)
chain: LDNGLARTPTMGWLHWERFMCNLDCQEEPDSCISEKLFMEMAERMVSEGWKDAGYEYLCIDDCWMAPQRDSEGRLQADPQRFPHGIRQLANYVHSKGLKLGIYADVGNKTCAGFPGSFGYYDIDAQTFADWGVDLLKFDGCYCDSLENLADGYKHMSLALNRTGRSIVYSCEWPLYMWPFQKPNYTEIRQYCNHWRNFADIDDSWKSIKSILDWTSRNQERIVDVAGPGGWNDPDMLVIGNFGLSWDQQVTQMAEWAIMAAPLFMSNDLRHISPQAKALLQDKDVIAINQDPLGKQGYQLRKGDNFEVWERPLSGDAWAVAIINRQEIGGPRSYTIPVASLGKGVACNPACFITQLLPVKRQLGFYNWTSRLKSHINPTGTVLLQLENTMQMSLKDLL
modifications: Synthetic Polypeptide sequence of Variant No. 424 of mature Human GLA
B2: 364 (protein)
chain: B1 chain with M39H, E255L
modifications: Synthetic Polypeptide sequence of Variant No. 364 of mature Human GLA
B3: 427 (protein)
chain: B1 chain with E255L, L263G
modifications: Synthetic Polypeptide sequence of Variant No. 427 of mature Human GLA
B4: 436 (protein)
chain: B1 chain with E255L, H271G
modifications: Synthetic Polypeptide sequence of Variant No. 436 of mature Human GLA
B5: 432 (protein)
chain: B1 chain with E255L
modifications: Synthetic Polypeptide sequence of Variant No. 432 of mature Human GLA
B6: 428 (protein)
chain: B1 chain with E255L, M259S
modifications: Synthetic Polypeptide sequence of Variant No. 428 of mature Human GLA
B7: 430 (protein)
chain: B1 chain with E255L, H271T
modifications: Synthetic Polypeptide sequence of Variant No. 430 of mature Human GLA
B8: 365 (protein)
chain: B1 chain with S47N, E255L
modifications: Synthetic Polypeptide sequence of Variant No. 365 of mature Human GLA
B9: 434 (protein)
chain: B1 chain with E255L, R270D
modifications: Synthetic Polypeptide sequence of Variant No. 434 of mature Human GLA
B10: 425 (protein)
chain: B1 chain with E255L, H271E
modifications: Synthetic Polypeptide sequence of Variant No. 425 of mature Human GLA
B11: 429 (protein)
chain: B1 chain with E255C
modifications: Synthetic Polypeptide sequence of Variant No. 429 of mature Human GLA
B12: 431 (protein)
chain: B1 chain with E255L, R270G
modifications: Synthetic Polypeptide sequence of Variant No. 431 of mature Human GLA
B13: 435 (protein)
chain: B1 chain with E255L, I258L
modifications: Synthetic Polypeptide sequence of Variant No. 435 of mature Human GLA
B14: 437 (protein)
chain: B1 chain with E255L, L263E
modifications: Synthetic Polypeptide sequence of Variant No. 437 of mature Human GLA
B15: 433 (protein)
chain: B1 chain with E255L, H271Q
modifications: Synthetic Polypeptide sequence of Variant No. 433 of mature Human GLA
B16: 426 (protein)
chain: B1 chain with E255L, M259E
modifications: Synthetic Polypeptide sequence of Variant No. 426 of mature Human GLA

experiment: HTP-analysis of supernatants pretreated with acid (MUGal hydrolysis); type: biochemical; settings: activity of the variant/activity of Rd4BB (SEQ ID NO: 15); challenge at pH 3.7
Outline: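 MUGal hydrolysis was tracked by fluorescence (Ex 355 nm, Em 448 nm) after a 30-180 min reaction at 37° C. in pH 4.8 McIlvaine/citrate buffer, stopped with 1 M sodium carbonate. Beforehand, yeast (INVSc1) culture supernatants carrying GLA variants were held 1-3 h at 37° C. in acidic McIlvaine buffer, pH 3.3-4.3.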

Row | Molecule | Relative Activity of GLA Variants After Challenge at pH 3.7
1 | B1 | + (0.5 to 1.5 relative activity over Rd4BB (SEQ ID NO: 15))
2 | B2 | + (0.5 to 1.5 relative activity over Rd4BB (SEQ ID NO: 15))
3 | B3 | − (<0.5 relative activity over Rd4BB (SEQ ID NO: 15))
4 | B4 | − (<0.5 relative activity over Rd4BB (SEQ ID NO: 15))
5 | B5 | − (<0.5 relative activity over Rd4BB (SEQ ID NO: 15))
6 | B6 | + (0.5 to 1.5 relative activity over Rd4BB (SEQ ID NO: 15))
7 | B7 | − (<0.5 relative activity over Rd4BB (SEQ ID NO: 15))
8 | B8 | + (0.5 to 1.5 relative activity over Rd4BB (SEQ ID NO: 15))
9 | B9 | − (<0.5 relative activity over Rd4BB (SEQ ID NO: 15))
10 | B10 | − (<0.5 relative activity over Rd4BB (SEQ ID NO: 15))
11 | B11 | + (0.5 to 1.5 relative activity over Rd4BB (SEQ ID NO: 15))
12 | B12 | − (<0.5 relative activity over Rd4BB (SEQ ID NO: 15))
13 | B13 | ++ (>1.5 to 2.5 relative activity over Rd4BB (SEQ ID NO: 15))
14 | B14 | + (0.5 to 1.5 relative activity over Rd4BB (SEQ ID NO: 15))
15 | B15 | + (0.5 to 1.5 relative activity over Rd4BB (SEQ ID NO: 15))
16 | B16 | − (<0.5 relative activity over Rd4BB (SEQ ID NO: 15))

experiment: HTP-analysis of yeast culture supernatants, no challenge (MUGal hydrolysis); type: biochemical; settings: activity of the variant/activity of Rd4BB (SEQ ID NO: 15)
Outline: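 GLA variants were expressed in INVSc1 yeast grown in SD-Ura broth with glucose at 30° C., and culture supernatants were collected after 66-84 h. Supernatant was mixed with McIlvaine buffer pH 4.8 and MUGal (2 mM stock) in 50 mM citrate, 200 mM KCl, pH 4.6, incubated at 37° C. for 30-180 minutes, then quenched with sodium carbonate.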

Row | Molecule | Relative Activity of GLA Variants After No Challenge (NC)
17 | B1 | + (0.5 to 1.5 relative activity over Rd4BB (SEQ ID NO: 15))
18 | B2 | + (0.5 to 1.5 relative activity over Rd4BB (SEQ ID NO: 15))
19 | B3 | + (0.5 to 1.5 relative activity over Rd4BB (SEQ ID NO: 15))
20 | B4 | + (0.5 to 1.5 relative activity over Rd4BB (SEQ ID NO: 15))
21 | B5 | + (0.5 to 1.5 relative activity over Rd4BB (SEQ ID NO: 15))
22 | B6 | + (0.5 to 1.5 relative activity over Rd4BB (SEQ ID NO: 15))
23 | B7 | + (0.5 to 1.5 relative activity over Rd4BB (SEQ ID NO: 15))
24 | B8 | + (0.5 to 1.5 relative activity over Rd4BB (SEQ ID NO: 15))
25 | B9 | + (0.5 to 1.5 relative activity over Rd4BB (SEQ ID NO: 15))
26 | B10 | + (0.5 to 1.5 relative activity over Rd4BB (SEQ ID NO: 15))
27 | B11 | + (0.5 to 1.5 relative activity over Rd4BB (SEQ ID NO: 15))
28 | B12 | + (0.5 to 1.5 relative activity over Rd4BB (SEQ ID NO: 15))
29 | B13 | + (0.5 to 1.5 relative activity over Rd4BB (SEQ ID NO: 15))
30 | B14 | + (0.5 to 1.5 relative activity over Rd4BB (SEQ ID NO: 15))
31 | B15 | + (0.5 to 1.5 relative activity over Rd4BB (SEQ ID NO: 15))
32 | B16 | + (0.5 to 1.5 relative activity over Rd4BB (SEQ ID NO: 15))

experiment: HTP-analysis of supernatants pretreated with base (MUGal hydrolysis); type: biochemical; settings: activity of the variant/activity of Rd4BB (SEQ ID NO: 15); challenge at pH 9.65
Outline: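 Supernatants from INVSc1 yeast expressing GLA variants (SD-Ura, 66-84 h, 30° C) were mixed with McIlvaine buffer pH 7.0-8.2 or 200 mM sodium bicarbonate pH 9.1-9.7 and held 1-18 h at 37° C. Residual activity was then measured on MUGal at pH 4.8/4.3, 37° C, 30-180 min, by fluorescence (Ex 355/Em 448 nm).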

Row | Molecule | Relative Activity of GLA Variants After Challenge at pH 9.65
33 | B1 | − (<0.5 relative activity over Rd4BB (SEQ ID NO: 15))
34 | B2 | − (<0.5 relative activity over Rd4BB (SEQ ID NO: 15))
35 | B3 | − (<0.5 relative activity over Rd4BB (SEQ ID NO: 15))
36 | B4 | − (<0.5 relative activity over Rd4BB (SEQ ID NO: 15))
37 | B5 | + (0.5 to 1.5 relative activity over Rd4BB (SEQ ID NO: 15))
38 | B6 | − (<0.5 relative activity over Rd4BB (SEQ ID NO: 15))
39 | B7 | + (0.5 to 1.5 relative activity over Rd4BB (SEQ ID NO: 15))
40 | B8 | + (0.5 to 1.5 relative activity over Rd4BB (SEQ ID NO: 15))
41 | B9 | − (<0.5 relative activity over Rd4BB (SEQ ID NO: 15))
42 | B10 | + (0.5 to 1.5 relative activity over Rd4BB (SEQ ID NO: 15))
43 | B11 | − (<0.5 relative activity over Rd4BB (SEQ ID NO: 15))
44 | B12 | − (<0.5 relative activity over Rd4BB (SEQ ID NO: 15))
45 | B13 | − (<0.5 relative activity over Rd4BB (SEQ ID NO: 15))
46 | B14 | − (<0.5 relative activity over Rd4BB (SEQ ID NO: 15))
47 | B15 | + (0.5 to 1.5 relative activity over Rd4BB (SEQ ID NO: 15))
48 | B16 | − (<0.5 relative activity over Rd4BB (SEQ ID NO: 15))
